Reference: paper PMC3433589 (Biochemistry, 2012)

molecular target: T1, human Glutaminase Interacting Protein (GIP) (human, UniProt O14907 1-124); test: NMR titration
T1 sequence (looked up): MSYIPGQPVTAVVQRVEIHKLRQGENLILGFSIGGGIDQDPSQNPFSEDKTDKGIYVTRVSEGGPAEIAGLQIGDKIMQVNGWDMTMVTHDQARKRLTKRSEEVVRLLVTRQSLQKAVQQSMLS

Binder	binding result
GSGTDLDAS [GSGTDLDAS peptide (synthetic)]	binds
ESSVDLLDG [ESSVDLLDG peptide (synthetic)]	binds
GSSLDVTDN [GSSLDVTDN peptide (synthetic)]	binds
ASSSVDDMA [ASSSVDDMA peptide (synthetic)]	binds

molecular target: T1, human Glutaminase Interacting Protein …; test: phage display selection

Binder	binding result
GSSSVDVDG [phage clone displaying GSSSVDVDG]	binds
AYESSVDDN [phage clone displaying AYESSVDDN]	binds
ESSVDMIGD [phage clone displaying ESSVDMIGD]	binds
GSSLDVTDN [phage clone displaying GSSLDVTDN]	binds
DSNLDVSVE [phage clone displaying DSNLDVSVE]	binds
GGNLDVNVG [phage clone displaying GGNLDVNVG]	binds
ESSVDLLDG [phage clone displaying ESSVDLLDG]	binds
GSMNLDVQS [phage clone displaying GSMNLDVQS]	binds
GSSVDLVGD [phage clone displaying GSSVDLVGD]	binds
GYETSLDSN [phage clone displaying GYETSLDSN]	binds
GTNLDGNGD [phage clone displaying GTNLDGNGD]	binds
DGNLDSYDN [phage clone displaying DGNLDSYDN]	binds
ASSSVDDMA [phage clone displaying ASSSVDDMA]	binds
VSNLDTTND [phage clone displaying VSNLDTTND]	binds
GSGTDLDAS [phage clone displaying GSGTDLDAS]	binds
AISSVDSMG [phage clone displaying AISSVDSMG]	binds
GSSLDVTSE [phage clone displaying GSSLDVTSE]	binds
